Source: US20250027114

Key:
[1] = system: T1, N1-21-ABE8e (Neisseria meningitidis); assay: cell_activity; conditions: E. coli ABE-PPA
T1 sequence: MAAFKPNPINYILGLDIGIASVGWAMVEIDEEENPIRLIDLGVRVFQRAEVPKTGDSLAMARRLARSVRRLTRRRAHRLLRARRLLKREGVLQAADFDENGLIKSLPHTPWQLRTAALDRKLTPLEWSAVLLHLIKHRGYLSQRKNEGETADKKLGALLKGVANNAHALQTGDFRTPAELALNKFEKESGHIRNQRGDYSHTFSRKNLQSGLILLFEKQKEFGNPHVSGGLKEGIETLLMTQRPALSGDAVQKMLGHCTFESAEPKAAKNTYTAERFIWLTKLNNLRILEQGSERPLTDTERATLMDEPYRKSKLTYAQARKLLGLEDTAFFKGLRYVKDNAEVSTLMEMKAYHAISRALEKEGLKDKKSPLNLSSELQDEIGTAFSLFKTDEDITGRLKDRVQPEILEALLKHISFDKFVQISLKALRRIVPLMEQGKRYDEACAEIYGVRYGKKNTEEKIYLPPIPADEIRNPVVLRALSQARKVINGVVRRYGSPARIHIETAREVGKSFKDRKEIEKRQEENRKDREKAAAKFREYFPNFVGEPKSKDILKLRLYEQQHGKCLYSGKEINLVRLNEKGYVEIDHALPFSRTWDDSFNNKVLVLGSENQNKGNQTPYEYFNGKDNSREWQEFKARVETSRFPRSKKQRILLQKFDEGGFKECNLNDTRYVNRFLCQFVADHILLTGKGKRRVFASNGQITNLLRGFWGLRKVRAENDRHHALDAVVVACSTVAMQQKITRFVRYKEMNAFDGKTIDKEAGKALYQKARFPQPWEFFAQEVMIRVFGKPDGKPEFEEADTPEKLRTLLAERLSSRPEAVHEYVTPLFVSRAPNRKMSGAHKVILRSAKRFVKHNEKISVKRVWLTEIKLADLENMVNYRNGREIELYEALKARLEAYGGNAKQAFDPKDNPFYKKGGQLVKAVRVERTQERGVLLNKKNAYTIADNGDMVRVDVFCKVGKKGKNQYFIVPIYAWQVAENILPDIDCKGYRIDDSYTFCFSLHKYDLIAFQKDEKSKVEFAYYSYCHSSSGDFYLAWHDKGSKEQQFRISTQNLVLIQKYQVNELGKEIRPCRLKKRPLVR

[2] = system: T2, E3-18-ABE8e (Neisseria meningitidis); assay: cell_activity; conditions: PAM N4YNC average, E. coli ABE-PPA; 33% on N4YND
T2 sequence: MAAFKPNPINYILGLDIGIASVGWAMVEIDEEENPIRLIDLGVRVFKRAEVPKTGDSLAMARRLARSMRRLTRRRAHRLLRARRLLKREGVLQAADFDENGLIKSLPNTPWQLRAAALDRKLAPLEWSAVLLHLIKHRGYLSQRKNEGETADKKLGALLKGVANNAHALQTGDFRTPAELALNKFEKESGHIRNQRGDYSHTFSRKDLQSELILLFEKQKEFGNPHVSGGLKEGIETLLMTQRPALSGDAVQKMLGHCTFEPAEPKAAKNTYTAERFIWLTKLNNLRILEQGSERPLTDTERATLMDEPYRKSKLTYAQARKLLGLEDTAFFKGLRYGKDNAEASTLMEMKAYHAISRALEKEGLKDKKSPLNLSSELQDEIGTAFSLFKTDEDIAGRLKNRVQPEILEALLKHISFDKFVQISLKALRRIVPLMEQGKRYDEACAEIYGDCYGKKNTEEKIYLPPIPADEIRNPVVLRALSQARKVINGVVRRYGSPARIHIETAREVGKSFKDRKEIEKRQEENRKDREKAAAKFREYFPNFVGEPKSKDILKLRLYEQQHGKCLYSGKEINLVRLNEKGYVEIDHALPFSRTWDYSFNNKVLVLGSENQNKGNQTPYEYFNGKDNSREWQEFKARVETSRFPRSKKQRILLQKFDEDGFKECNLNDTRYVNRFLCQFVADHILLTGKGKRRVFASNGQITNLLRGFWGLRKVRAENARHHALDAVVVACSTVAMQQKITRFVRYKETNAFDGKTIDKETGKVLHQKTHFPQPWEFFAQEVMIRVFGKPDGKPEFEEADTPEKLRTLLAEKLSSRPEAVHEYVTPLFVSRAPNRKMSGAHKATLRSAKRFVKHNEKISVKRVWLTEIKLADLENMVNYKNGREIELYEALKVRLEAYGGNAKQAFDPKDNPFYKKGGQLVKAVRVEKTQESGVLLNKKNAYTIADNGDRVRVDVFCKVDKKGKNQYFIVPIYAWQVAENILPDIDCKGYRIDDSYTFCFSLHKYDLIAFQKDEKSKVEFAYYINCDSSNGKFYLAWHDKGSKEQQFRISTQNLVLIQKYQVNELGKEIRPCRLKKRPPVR

Which results are given for “AUGGCCCAGACUGAGCACGUGAGGUUGUAGCUCCCUUUCUCAUUUCGGAAACGAAAUGAGAACCGUUGCUACAAUAAGGCCGUCUGAAAAGAUGUGCCGCAACGCUCUGCCCCUUAAAGCUUCUGCUUUAAGGGGCAUCGUUUA / ATGGCCCAGACTGAGCACGTGA / TCACGTGCTCAGTCTGGGCCAT [ABE-PPA sgRNA ; ABE-PPA protospacer library target]”?
activity (% A-to-G conversion) ([1]; PAM N3CCC (counterselected), virtually eliminated): 4.8; activity (% A-to-G conversion) ([1]; PAM N3TTG, 64% average on N4GN PAMs): 67; activity (% A-to-G conversion) [2]: 61
